Assay results: patent US20140018302A1 (published 2014)

Target: recombinant HDM2 17-125 (UniProt Q00987 17-125)
Assay: FP competition with FITC-SAH-p53-8; FIG. 2B; axis prints HDMX, legend says HDM2

IC50: 216 nM
B1: SAH-p53-8 (peptide)
peptide: QSQQTFXNLWRLLXQN
modifications: not fully specified; amino acids at positions S20 and P27 (p53 numbering) replaced with synthetic olefinic residues joined by an i, i+7 hydrocarbon staple; acetyl-capped N-terminus in the competition FP assay
